In patent publication US20100278865A1:

Target: E2 protein of J6/JFH-1 (3×FLAG) virus particles (hepatitis C virus, J6CF strain (genotype 2a))
Assay: batch capture of virus particles on M2 antibody agarose, FLAG peptide elution, HCV Core ELISA of eluates

Work on “anti-FLAG monoclonal antibody (M2 antibody, Sigma)” yielded a purification efficiency of 5%.
